We go through six proteins from patent US20130303441.

Data set [1] deals with T1, p9CREB peptide substrate, ILSRRPS(p)YR.
T1 chain: ILSRRPSYR

Data set [2] deals with T2, pIRS-1 peptide substrate, RREGGMSRPAS(p)VDG.
T2 chain: RREGGMSRPASVDG

Data set [3] addresses T3, pGS-1 peptide substrate, YRRAAVPPSPSLSRHSSPSQS(p)EDEEE.
T3 chain: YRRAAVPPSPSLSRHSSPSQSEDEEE

Data set [4] deals with T4, L803-mts, cell permeable variant of L803 with myristic acid attached to its N-terminal.
T4 chain: GKEAPPAPPQSP

B1: GSK-3β F93A mutant (protein)
chain: MSGRPRTTSFAESCKPVQQPSAFGSMKVSRDKDGSKVTTVVATPGQGPDRPQEVSYTDTKVIGNGSFGVVYQAKLCDSGELVAIKKVLQDKRAKNRELQIMRKLDHCNIVRLRYFFYSSGEKKDEVYLNLVLDYVPETVYRVARHYSRAKQTLPVIYVKLYMYQLFRSLAYIHSFGICHRDIKPQNLLLDPDTAVLKLCDFGSAKQLVRGEPNVSYICSRYYRAPELIFGATDYTSSIDVWSAGCVLAELLLGQPIFPGDSGVDQLVEIIKVLGTPTREQIREMNPNYTEFKFPQIKAHPWTKDSSGTGHFTSGVRVFRPRTPPEAIALCSRLLEYTPTARLTPLEACAHSFFDELRDPNVKLPNGRDTPALFNFTTQELSSNPPLATILIPPHARIQAAASTPTNATAASDANTGDRGQTNNAASASASNST
With B1, the results for the Substrate phosphorylation (% of WTGSK-3β), in vitro kinase assay (% of WT GSK-3β) in data set [1], in data set [2] and in data set [3] were 46, 42 and 13, respectively.

B2: GSK-3β K94A mutant (protein)
chain: MSGRPRTTSFAESCKPVQQPSAFGSMKVSRDKDGSKVTTVVATPGQGPDRPQEVSYTDTKVIGNGSFGVVYQAKLCDSGELVAIKKVLQDKRFANRELQIMRKLDHCNIVRLRYFFYSSGEKKDEVYLNLVLDYVPETVYRVARHYSRAKQTLPVIYVKLYMYQLFRSLAYIHSFGICHRDIKPQNLLLDPDTAVLKLCDFGSAKQLVRGEPNVSYICSRYYRAPELIFGATDYTSSIDVWSAGCVLAELLLGQPIFPGDSGVDQLVEIIKVLGTPTREQIREMNPNYTEFKFPQIKAHPWTKDSSGTGHFTSGVRVFRPRTPPEAIALCSRLLEYTPTARLTPLEACAHSFFDELRDPNVKLPNGRDTPALFNFTTQELSSNPPLATILIPPHARIQAAASTPTNATAASDANTGDRGQTNNAASASASNST
For the protein B2, the Substrate phosphorylation (% of WTGSK-3β), in vitro kinase assay (% of WT GSK-3β) in data set [1] came out at 71; in data set [2], 52; in data set [3], 19.

B3: GSK-3β K91A mutant (protein)
chain: MSGRPRTTSFAESCKPVQQPSAFGSMKVSRDKDGSKVTTVVATPGQGPDRPQEVSYTDTKVIGNGSFGVVYQAKLCDSGELVAIKKVLQDARFKNRELQIMRKLDHCNIVRLRYFFYSSGEKKDEVYLNLVLDYVPETVYRVARHYSRAKQTLPVIYVKLYMYQLFRSLAYIHSFGICHRDIKPQNLLLDPDTAVLKLCDFGSAKQLVRGEPNVSYICSRYYRAPELIFGATDYTSSIDVWSAGCVLAELLLGQPIFPGDSGVDQLVEIIKVLGTPTREQIREMNPNYTEFKFPQIKAHPWTKDSSGTGHFTSGVRVFRPRTPPEAIALCSRLLEYTPTARLTPLEACAHSFFDELRDPNVKLPNGRDTPALFNFTTQELSSNPPLATILIPPHARIQAAASTPTNATAASDANTGDRGQTNNAASASASNST
Turning to B3, the Substrate phosphorylation (% of WTGSK-3β), in vitro kinase assay (% of WT GSK-3β) came to 161 in data set [1], 140 in data set [2] and 119 in data set [3].

B4: wild-type (WT) GSK-3β (protein)
chain: MSGRPRTTSFAESCKPVQQPSAFGSMKVSRDKDGSKVTTVVATPGQGPDRPQEVSYTDTKVIGNGSFGVVYQAKLCDSGELVAIKKVLQDKRFKNRELQIMRKLDHCNIVRLRYFFYSSGEKKDEVYLNLVLDYVPETVYRVARHYSRAKQTLPVIYVKLYMYQLFRSLAYIHSFGICHRDIKPQNLLLDPDTAVLKLCDFGSAKQLVRGEPNVSYICSRYYRAPELIFGATDYTSSIDVWSAGCVLAELLLGQPIFPGDSGVDQLVEIIKVLGTPTREQIREMNPNYTEFKFPQIKAHPWTKDSSGTGHFTSGVRVFRPRTPPEAIALCSRLLEYTPTARLTPLEACAHSFFDELRDPNVKLPNGRDTPALFNFTTQELSSNPPLATILIPPHARIQAAASTPTNATAASDANTGDRGQTNNAASASASNST
As to B4, in data set [4], the “in vitro kinase assays using pIRS-1, p9CREB and pGS-1 substrate in the presence or absence of L803-mts (100 µM)” value was “L803-mts competes with various substrates”.

B5: GSK-3β R92A mutant (protein)
chain: MSGRPRTTSFAESCKPVQQPSAFGSMKVSRDKDGSKVTTVVATPGQGPDRPQEVSYTDTKVIGNGSFGVVYQAKLCDSGELVAIKKVLQDKAFKNRELQIMRKLDHCNIVRLRYFFYSSGEKKDEVYLNLVLDYVPETVYRVARHYSRAKQTLPVIYVKLYMYQLFRSLAYIHSFGICHRDIKPQNLLLDPDTAVLKLCDFGSAKQLVRGEPNVSYICSRYYRAPELIFGATDYTSSIDVWSAGCVLAELLLGQPIFPGDSGVDQLVEIIKVLGTPTREQIREMNPNYTEFKFPQIKAHPWTKDSSGTGHFTSGVRVFRPRTPPEAIALCSRLLEYTPTARLTPLEACAHSFFDELRDPNVKLPNGRDTPALFNFTTQELSSNPPLATILIPPHARIQAAASTPTNATAASDANTGDRGQTNNAASASASNST
In the case of B5, the figures for the Substrate phosphorylation (% of WTGSK-3β), in vitro kinase assay (% of WT GSK-3β) in data set [1], in data set [2] and in data set [3] were 49, 60 and 41, respectively.

B6: GSK-3β D90A mutant (protein)
chain: MSGRPRTTSFAESCKPVQQPSAFGSMKVSRDKDGSKVTTVVATPGQGPDRPQEVSYTDTKVIGNGSFGVVYQAKLCDSGELVAIKKVLQAKRFKNRELQIMRKLDHCNIVRLRYFFYSSGEKKDEVYLNLVLDYVPETVYRVARHYSRAKQTLPVIYVKLYMYQLFRSLAYIHSFGICHRDIKPQNLLLDPDTAVLKLCDFGSAKQLVRGEPNVSYICSRYYRAPELIFGATDYTSSIDVWSAGCVLAELLLGQPIFPGDSGVDQLVEIIKVLGTPTREQIREMNPNYTEFKFPQIKAHPWTKDSSGTGHFTSGVRVFRPRTPPEAIALCSRLLEYTPTARLTPLEACAHSFFDELRDPNVKLPNGRDTPALFNFTTQELSSNPPLATILIPPHARIQAAASTPTNATAASDANTGDRGQTNNAASASASNST
For the protein B6, the Substrate phosphorylation (% of WTGSK-3β), in vitro kinase assay (% of WT GSK-3β) in data set [1] was determined as 92; in data set [2] it was 88; in data set [3] it was 83.
